# Paper PMC7455559
# Target: connexin-50 (native, sheep lens) (sheep) (UniProt P55917)
# Experiment: cryo-EM structure; native Cx46/50 intercellular channels from sheep lens in a pair of MSP1E1/DMPC nanodiscs; 20 mM HEPES pH 7.4, 150 mM NaCl; single-particle reconstruction with D6 symmetry, 1.90 Å (2.3 Å without symmetry); the two isoforms could not be told apart by image classification
substance,measurement,value
"connexin-46 (native, sheep lens) (from UniProt Q9TU17 1-413) (natural protein)",subunits in the intercellular channel (Cx46 and Cx50 together),12
